Source: patent publication US20210395746, “COMPOSITIONS FOR […] TRANSCRIPTIONAL FEEDBACK CIRCUIT DISRUPTION AND USES […]” (The J. David Gladstone Institutes, a testamentary trust …, published 2021)

Tests used:
[1] = target: T1, IE86 (IE2) C-terminal fragment (Human cytomegalovirus) (UniProt Q6SWP7); conditions: FPLC Superose 6; 20 mM HEPES pH 7.4, 250 mM NaCl, 1 mM DTT; most efficient length
T1 sequence: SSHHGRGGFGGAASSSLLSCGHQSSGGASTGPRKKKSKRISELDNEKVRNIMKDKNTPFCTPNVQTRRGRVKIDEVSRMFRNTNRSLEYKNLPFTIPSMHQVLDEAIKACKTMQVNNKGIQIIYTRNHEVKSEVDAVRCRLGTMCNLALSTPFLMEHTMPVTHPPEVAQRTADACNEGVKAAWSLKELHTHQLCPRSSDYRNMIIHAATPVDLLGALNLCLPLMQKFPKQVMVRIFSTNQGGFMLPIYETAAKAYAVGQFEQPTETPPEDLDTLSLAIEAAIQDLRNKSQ

[2] = target: T2, IE86 (IE2) full-length, minimal feedback circuit or virus-encoded (Human cytomegalovirus, UniProt P19893 P19893:1-580); assay: cell_activity; CMV C-DOT dose-response in 96-well format; indirect, decoy effect; conditions: tags: MIEP-IE86-IRES-GFP reporter or IE86-YFP virus; chain copies: 2
T2 sequence: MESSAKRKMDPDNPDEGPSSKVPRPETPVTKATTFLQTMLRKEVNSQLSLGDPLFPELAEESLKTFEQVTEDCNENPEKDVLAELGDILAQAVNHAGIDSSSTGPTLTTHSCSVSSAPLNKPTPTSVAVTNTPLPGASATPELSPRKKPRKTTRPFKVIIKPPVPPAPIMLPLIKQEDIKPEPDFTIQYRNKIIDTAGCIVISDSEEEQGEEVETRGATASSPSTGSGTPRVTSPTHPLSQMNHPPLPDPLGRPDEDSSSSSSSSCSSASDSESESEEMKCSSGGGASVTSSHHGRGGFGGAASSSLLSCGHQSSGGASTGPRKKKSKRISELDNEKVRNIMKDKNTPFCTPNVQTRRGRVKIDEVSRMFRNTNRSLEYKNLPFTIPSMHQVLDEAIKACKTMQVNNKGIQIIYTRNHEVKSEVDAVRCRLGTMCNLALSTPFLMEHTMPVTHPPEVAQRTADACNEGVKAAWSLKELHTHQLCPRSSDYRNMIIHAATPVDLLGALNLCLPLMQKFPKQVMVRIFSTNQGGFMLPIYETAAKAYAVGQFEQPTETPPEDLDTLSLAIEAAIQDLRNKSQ

IE175 (ICP4) = target: T3, IE175 (ICP4) (Herpes simplex virus type 1, UniProt P08392 P08392:1-1298); assay: cell_activity; HSV-1 C-DOT dose-response in 96-well format; indirect, decoy effect; conditions: tags: YFP fusion, strain 17syn+; chain copies: 2
T3 sequence: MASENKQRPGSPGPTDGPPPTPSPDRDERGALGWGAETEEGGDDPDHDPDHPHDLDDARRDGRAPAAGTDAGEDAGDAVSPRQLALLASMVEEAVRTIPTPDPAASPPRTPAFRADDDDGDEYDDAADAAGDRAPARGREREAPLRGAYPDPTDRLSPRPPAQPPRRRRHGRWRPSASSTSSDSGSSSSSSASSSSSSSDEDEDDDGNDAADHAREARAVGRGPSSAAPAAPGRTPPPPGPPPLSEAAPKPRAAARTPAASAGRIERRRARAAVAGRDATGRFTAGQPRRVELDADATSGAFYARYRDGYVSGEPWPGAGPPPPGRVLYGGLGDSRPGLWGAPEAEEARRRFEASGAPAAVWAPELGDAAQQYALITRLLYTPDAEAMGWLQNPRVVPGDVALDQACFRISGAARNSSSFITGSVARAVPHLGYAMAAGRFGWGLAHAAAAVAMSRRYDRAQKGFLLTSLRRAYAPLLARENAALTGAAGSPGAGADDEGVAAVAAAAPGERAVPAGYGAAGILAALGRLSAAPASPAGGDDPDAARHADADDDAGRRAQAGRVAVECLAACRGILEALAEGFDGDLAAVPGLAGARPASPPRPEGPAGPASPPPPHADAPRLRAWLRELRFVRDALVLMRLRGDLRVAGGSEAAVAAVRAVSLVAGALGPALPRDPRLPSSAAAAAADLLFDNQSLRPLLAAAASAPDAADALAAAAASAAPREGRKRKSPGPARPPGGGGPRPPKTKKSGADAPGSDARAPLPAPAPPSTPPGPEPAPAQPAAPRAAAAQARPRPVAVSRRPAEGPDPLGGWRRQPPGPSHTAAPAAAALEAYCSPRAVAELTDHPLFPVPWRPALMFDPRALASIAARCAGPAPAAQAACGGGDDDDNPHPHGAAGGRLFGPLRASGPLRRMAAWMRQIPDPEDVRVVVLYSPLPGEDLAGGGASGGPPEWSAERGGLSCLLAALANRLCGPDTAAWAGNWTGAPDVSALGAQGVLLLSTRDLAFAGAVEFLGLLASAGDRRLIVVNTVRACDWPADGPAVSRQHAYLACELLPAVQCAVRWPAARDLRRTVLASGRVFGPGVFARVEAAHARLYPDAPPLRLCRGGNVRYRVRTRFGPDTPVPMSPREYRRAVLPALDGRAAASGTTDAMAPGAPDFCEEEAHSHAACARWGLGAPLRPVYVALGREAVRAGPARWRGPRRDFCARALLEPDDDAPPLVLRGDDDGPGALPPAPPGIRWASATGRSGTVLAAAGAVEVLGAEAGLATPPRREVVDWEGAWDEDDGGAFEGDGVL

## GACAGATCGTTTAGTGAACCGTACACGA (double strand) [28 bp crs DNA]
[1]
  binding signal (% protein in complex fraction): 98

B1: C-DOTC (dsDNA)
DNA 1: GACAGATCGTTTAGTGAACCGTACACGA
DNA 2: TCGTGTACGGTTCACTAAACGATCTGTC
modifications: PS at bonds marked * G*ACAGATCGTT*TAGTGAACC*GTACACG*A / T*CGTGTAC*GGTTCACTA*AACGATCTGT*C
[2]
  IC50: < 1 nM

B2: C-DOTH (dsDNA)
DNA 1: CCGAGGACGCCCCGATCGTCCACACGGAG
DNA 2: CTCCGTGTGGACGATCGGGGCGTCCTCGG
modifications: PS at bonds marked * CCG*AGGAC*GCCCCGATC*GTCCACACG*GAG / CTC*CGTGTGGAC*GATCGGGGC*GTCCT*CGG
IE175 (ICP4)
  IC50: < 1 nM
